Laboratory results from IntAct's records for PubMed 18342605.

Legend:
pp12_yeast GLC7 = pp12_yeast GLC7 (UniProt P32598)
nab3_yeast NAB3 = nab3_yeast NAB3 (UniProt P38996)
Chain of UniProt P38996 (P38996 whole entry): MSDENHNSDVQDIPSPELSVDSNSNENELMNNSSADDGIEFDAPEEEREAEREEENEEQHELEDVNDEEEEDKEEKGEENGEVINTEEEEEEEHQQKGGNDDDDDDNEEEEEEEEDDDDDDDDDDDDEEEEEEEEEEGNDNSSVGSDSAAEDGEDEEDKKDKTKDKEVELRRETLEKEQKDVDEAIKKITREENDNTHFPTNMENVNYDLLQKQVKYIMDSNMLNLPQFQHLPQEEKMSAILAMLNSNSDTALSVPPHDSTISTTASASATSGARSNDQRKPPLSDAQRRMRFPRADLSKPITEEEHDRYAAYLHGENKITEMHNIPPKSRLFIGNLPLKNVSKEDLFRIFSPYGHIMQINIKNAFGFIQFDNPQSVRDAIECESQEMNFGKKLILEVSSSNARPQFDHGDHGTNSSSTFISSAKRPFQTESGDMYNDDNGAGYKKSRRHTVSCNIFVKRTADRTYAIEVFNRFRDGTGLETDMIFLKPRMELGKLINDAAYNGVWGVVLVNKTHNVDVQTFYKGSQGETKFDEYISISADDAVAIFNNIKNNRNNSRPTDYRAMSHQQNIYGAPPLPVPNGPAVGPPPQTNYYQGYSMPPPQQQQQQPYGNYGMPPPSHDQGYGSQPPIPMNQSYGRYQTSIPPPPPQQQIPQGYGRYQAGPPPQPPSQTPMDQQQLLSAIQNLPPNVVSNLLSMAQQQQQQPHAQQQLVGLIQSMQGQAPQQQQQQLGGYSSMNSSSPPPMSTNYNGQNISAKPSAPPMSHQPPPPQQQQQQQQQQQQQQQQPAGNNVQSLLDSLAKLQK

Chain of UniProt P32598 (P32598 whole entry): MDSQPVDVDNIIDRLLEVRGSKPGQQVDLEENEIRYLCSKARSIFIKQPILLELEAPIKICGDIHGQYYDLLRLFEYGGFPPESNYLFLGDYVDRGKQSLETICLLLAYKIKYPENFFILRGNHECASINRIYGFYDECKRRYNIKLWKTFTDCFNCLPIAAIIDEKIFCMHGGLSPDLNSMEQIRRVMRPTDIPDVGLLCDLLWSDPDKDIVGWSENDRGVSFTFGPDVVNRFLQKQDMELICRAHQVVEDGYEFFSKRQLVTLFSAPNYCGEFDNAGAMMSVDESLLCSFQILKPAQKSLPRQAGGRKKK

effect of a mutation on the interaction (pp12_yeast GLC7) | effect of a mutation on the interaction (nab3_yeast NAB3) | Substance
disrupting interaction strength | with no effect | Helicase SEN1 (Saccharomyces cerevisiae), Q00416 F2003A
with no effect | with no effect | Helicase SEN1 (Saccharomyces cerevisiae), Q00416 K1999A
